Patent EP1073891B1, “METHOD OF PREDICTING RECEPTOR MODULATING ACTIVITY” (Duke University, priority 1998, dated 1999)

What was measured:
ERβ [1] = target: T1, ERβ (Homo sapiens, UniProt Q92731); assay: Time resolved fluorescence (TRF) binding of europium-streptavidin peptide conjugates in the presence of modulators; set-up: purchased PanVera Corporation, Madison, WI; conditions: for Equiv.: ERβ, positive: % of maximum stimulation by the reference modulator, negative: % of reduction by ICI 182,780
ERβ [2] = target: T1, ERβ; assay: Phage ELISA / fingerprint on ER immobilized on biotinylated ERE (Examples 2.3-2.5); format: binding; set-up: purchased PanVera Corporation, Madison, WI; key: semiquantitative scale of 0 to 7+; 1+: semiquantitative scale of 0 to 7+; 2+: semiquantitative scale of 0 to 7+; 3+: semiquantitative scale of 0 to 7+; 4+: semiquantitative scale of 0 to 7+; 5+: semiquantitative scale of 0 to 7+; 6+: semiquantitative scale of 0 to 7+; semiquantitative scale of 0 to 7+; conditions: for binding activity, ERβ and Estradiol: ERβ and Estradiol (1 µM); for binding activity, ERβ and tamoxifen: ERβ and tamoxifen (4-OH tamoxifen, 1 µM)
ERα = target: T2, ERα (Homo sapiens, UniProt P03372); assay: as above; format: binding; set-up: purchased PanVera Corporation, Madison, WI; key to binding activity, ERα and buffer / binding activity, ERα and estradiol / binding activity, ERα and tamoxifen / binding of peptide, Class Specific Fingerprint on ERα: semiquantitative scale of 0 to 7+; 1+: semiquantitative scale of 0 to 7+; 2+: semiquantitative scale of 0 to 7+; 3+: semiquantitative scale of 0 to 7+; 4+: semiquantitative scale of 0 to 7+; 5+: semiquantitative scale of 0 to 7+; 6+: semiquantitative scale of 0 to 7+; semiquantitative scale of 0 to 7+; conditions: for binding activity, ERα and estradiol: ERα and estradiol (1 µM); for binding activity, ERα and tamoxifen: ERα and tamoxifen (4-OH tamoxifen, 1 µM)
T2 sequence (P03372 1-595): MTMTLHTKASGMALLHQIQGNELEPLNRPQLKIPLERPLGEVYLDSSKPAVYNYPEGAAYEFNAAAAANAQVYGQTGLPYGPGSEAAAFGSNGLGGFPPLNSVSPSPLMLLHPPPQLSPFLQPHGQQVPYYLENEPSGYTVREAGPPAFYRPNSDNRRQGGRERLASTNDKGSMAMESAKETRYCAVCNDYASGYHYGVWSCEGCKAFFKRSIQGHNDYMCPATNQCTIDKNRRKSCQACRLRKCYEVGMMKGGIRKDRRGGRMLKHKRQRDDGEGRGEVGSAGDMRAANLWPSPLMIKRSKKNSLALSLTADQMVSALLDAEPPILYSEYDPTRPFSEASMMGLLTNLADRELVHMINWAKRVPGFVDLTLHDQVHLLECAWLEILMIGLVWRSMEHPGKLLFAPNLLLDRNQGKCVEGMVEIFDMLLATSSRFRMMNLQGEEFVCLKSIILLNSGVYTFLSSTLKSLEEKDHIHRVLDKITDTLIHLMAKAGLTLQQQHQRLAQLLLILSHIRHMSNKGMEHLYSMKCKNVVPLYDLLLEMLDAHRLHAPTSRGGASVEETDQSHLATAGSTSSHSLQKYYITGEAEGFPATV

T1 sequence (Q92731 whole entry): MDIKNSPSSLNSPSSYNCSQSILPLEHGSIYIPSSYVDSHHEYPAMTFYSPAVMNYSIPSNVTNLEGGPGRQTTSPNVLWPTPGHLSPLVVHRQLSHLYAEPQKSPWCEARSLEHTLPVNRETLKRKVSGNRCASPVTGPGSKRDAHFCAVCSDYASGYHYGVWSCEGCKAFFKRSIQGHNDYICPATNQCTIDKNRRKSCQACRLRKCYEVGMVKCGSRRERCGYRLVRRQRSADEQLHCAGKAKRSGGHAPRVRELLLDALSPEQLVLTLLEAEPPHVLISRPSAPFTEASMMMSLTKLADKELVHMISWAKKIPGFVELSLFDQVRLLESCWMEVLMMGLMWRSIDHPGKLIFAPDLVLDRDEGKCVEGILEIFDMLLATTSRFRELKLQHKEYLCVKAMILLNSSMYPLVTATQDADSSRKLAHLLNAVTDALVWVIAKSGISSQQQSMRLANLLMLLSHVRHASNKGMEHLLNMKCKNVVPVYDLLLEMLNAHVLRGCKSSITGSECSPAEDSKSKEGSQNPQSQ

Row | binding activity, ERβ and Estradiol (ERβ [2]) | binding activity, ERβ and buffer (ERβ [2]) | binding activity, ERβ and tamoxifen (ERβ [2]) | binding activity, ERα and buffer (ERα) | binding activity, ERα and estradiol (ERα) | binding activity, ERα and tamoxifen (ERα) | Molecule | Equiv. (ERβ [1]; peptide probe α/βI) [%] | Equiv. (ERβ [1]; peptide probe α/βV) [%] | binding of the β I probe to ER β (ERβ [1]; TRF binding assay, in the presence of the compound)
1 |  |  |  |  |  |  | CC/C(=C(\c1ccc(O)cc1)c1ccc(/C=C/C(=O)O)cc1)c1ccccc1 [GW 7604] | 0 | 0 | 
2 | 7+ | 3+ | 1+ | 4+ | 5+ | 3+ | SSAGLLEDMLRSRSR [Peptide 21E-β] |  |  | 
3 | 7+ | 7+ | 7+ | 2+ | 2+ | 2+ | SRECVGGWCLAELSR [Peptide 18b-β] |  |  | 
4 | 7+ | 5+ | 2+ | 4+ | 6+ | 4+ | SSDTRSRLYELLSSSYTSR [Peptide 5E-β] |  |  | 
5 | 3+ | 7+ | 3+ | 4+ | 3+ | 3+ | SYSKEWFEERLNSR [Peptide 4b-β] |  |  | 
6 | 7+ | 4+ | 1+ | 3+ | 4+ |  | SSILERLLGGGSAETV [Peptide 9E-β] |  |  | 
7 | 7+ | 4+ | 2+ | 5+ | 6+ | 4+ | SRSPILWHLLQDGSR [Peptide 10E-β] |  |  | 
8 | 7+ | 5+ | 2+ | 6+ | 6+ | 5+ | SSLQAGSWLMHYLRGGDSR [Peptide 23E-β] |  |  | 
9 | 7+ | 6+ | 2+ | 3+ | 6+ | 3+ | SSRLLCLLDAGQCSR [Peptide 16E-β] |  |  | 
10 | 2+ | 3+ | 7+ | 3+ | 3+ | 7+ | SSVFTIMDGKVALSR [Peptide 1t-β] |  |  | 
11 | 7+ | 5+ | 3+ | 6+ | 5+ | 6+ | SRDWRSGFLYELLSR [Peptide 4E-β] |  |  | 
12 | 6+ | 3+ | 1+ | 4+ | 5+ | 4+ | SRLHDLLLRDESPSR [Peptide 3E-β] |  |  | 
13 | 7+ | 7+ | 5+ | 3+ | 4+ | 3+ | SSYDWQCPSWYCPAPPSSR [Peptide 29E-β] |  |  | 
14 | 6+ | 4+ | 2+ | 5+ | 3+ | 4+ | SSYEIPKWALQWLSR [Peptide 34E-β] |  |  | 
15 | 7+ | 5+ | 2+ | 3+ | 3+ | 2+ | SSRPSFTIPWWFDDPSRSR [Peptide 33E-β] |  |  | 
16 |  |  |  |  |  |  | CC/C(=C(/CC)c1ccc(O)cc1)c1ccc(O)cc1 [DES, diethylstilbestrol] |  |  | reduction
17 | 4+ | 5+ | 7+ | 3+ | 4+ | 6+ | SSISTYHMGEWFYAMLSSR [Peptide 22t-β] |  |  | 
18 | 7+ | 5+ | 2+ | 5+ | 4+ | 4+ | SSQWQAPWWYIDASR [Peptide 32E-β] |  |  | 
19 | 7+ | 3+ | 2+ | 5+ | 5+ | 4+ | SSRTLLEHYLLGGSR [Peptide 20E-β] |  |  | 
20 | 7+ | 5+ | 1+ | 4+ | 6+ | 3+ | SSPTGHRLLESLLLNSNSR [Peptide 8E-β] |  |  | 
21 | 7+ | 3+ | 2+ | 3+ | 2+ | 3+ | SSWDFRVPWWYNNSR [Peptide 31E-β] |  |  | 
22 | 7+ | 4+ | 2+ | 4+ | 5+ | 3+ | SSLKCLLQSSPQKQPFCSR [Peptide 19E-β] |  |  | 
23 | 7+ | 4+ | 1+ | 5+ | 6+ | 5+ | SSLKCLLNSNFCSR [Peptide 18E-β] |  |  | 
24 | 7+ | 4+ |  | 6+ | 6+ | 5+ | SSHCHTRLCSLLTSR [Peptide 15E-β] |  |  | 
25 | 3+ | 6+ | 7+ | 7+ | 6+ | 7+ | SRLNGVFCHDSSDLWVCSR [Peptide 18t-β] |  |  | 
26 | 5+ | 7+ | 7+ | 7+ | 6+ | 7+ | SRMFQVCGDEVCLRSR [Peptide 16t-β] |  |  | 
27 | 7+ | 5+ | 2+ | 4+ | 5+ | 3+ | SSRCSSLLCEMLIQTKESR [Peptide 22E-β] |  |  | 
